# Experimental data: the supplement of paper PMC10567573
# B1: DUSP5 (parent)
# chain: YSEYPECCVDVKPISQEKIESERA
# Variants of: B1
# Assay: protein stability index of a GFP-peptide fusion (GPS, HEK-293T) (PSI 1-6); higher = more stable
# Conditions: c terminus: a fixed tail appended
# 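Further: lentivirally expressed fusions sorted by FACS into six bins by GFP to DsRed ratio, PSI derived from sequencing read proportions per bin multiplied by bin number.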
row,Variant,protein stability index
1,YSEYPECCVDVKPISQSKIESERA,3.06
2,YSEYPECCVDVKPISQYKIESERA,3.1
3,YSEYPECCVDVKPISQQKIESERA,3.97
4,YSEYPECCVDVKPISQWKIESERA,2.78
5,YSEYPECCVDVKPISQDKIESERA,3.75
6,YSEYPECCVDVKPISQRKIESERA,2.95
7,YSEYPECCVDVKPISQFKIESERA,3.43
8,YSEYPECCVDVKPISQKKIESERA,3.21
9,YSEYPECCVDVKPISQNKIESERA,3.61
10,YSEYPECCVDVKPISQMKIESERA,2.53
11,YSEYPECCVDVKPISQGKIESERA,3.86
12,YSEYPECCVDVKPISQIKIESERA,3.17
13,YSEYPECCVDVKPISQTKIESERA,3.89
14,YSEYPECCVDVKPISQHKIESERA,3.82
15,YSEYPECCVDVKPISQVKIESERA,2.86
16,YSEYPECCVDVKPISQAKIESERA,4.41
17,YSEYPECCVDVKPISQPKIESERA,4.37
18,YSEYPECCVDVKPISQCKIESERA,3.01
19,YSEYPECCVDVKPISQEKIKSERA,4.02
20,YSEYPECCVDVKPISQEKIQSERA,3.65
21,YSEYPECCVDVKPISQEKISSERA,3.97
22,YSEYPECCVDVKPISQEKIWSERA,2.04
23,YSEYPECCVDVKPISQEKILSERA,3.94
24,YSEYPECCVDVKPISQEKIHSERA,4

row,Variant,protein stability index
1,YSEYPECCVDVKPISQEKINSERA,3.6
2,YSEYPECCVDVKPISQEKIYSERA,4.1
3,YSEYPECCVDVKPISQEKIMSERA,2.8
4,YSEYPECCVDVKPISQEKIGSERA,3.67
5,YSEYPECCVDVKPISQEKIRSERA,3.56
6,YSEYPECCVDVKPISQEKIVSERA,2.78
7,YSEYPECCVDVKPISQEKIDSERA,4.28
8,YSEYPECCVDVKPISQEKIASERA,4.89
9,YSEYPECCVDVKPISQEKICSERA,4.31
10,YSEYPECCVDVKPISQEKITSERA,3.59
11,YSEYPECCVDVKPISQEKIPSERA,3.78
12,YSEYPECCVDVKPISQEKIISERA,3.49
13,YSEYPECCVDVKPISQEKIFSERA,3.56
14,YSEYPECCVDVKVISQEKIESERA,2.85
15,YSEYPECCVDVKWISQEKIESERA,3.17
16,YSEYPECCVDVKSISQEKIESERA,3.33
17,YSEYPECCVDVKYISQEKIESERA,3.29
18,YSEYPECCVDVKTISQEKIESERA,4.18
19,YSEYPECCVDVKPISQEKIECERA,3.96
20,YSEYPECCVDVKPISQEKIEKERA,4.49
21,YSEYPECCVDVKPISQEKIEMERA,3.72
22,YSEYPECCVDVKPISQEKIERERA,3.22
23,YSEYPECCVDVKPISQEKIEDERA,3.47
24,YSEYPECCVDVKPISQEKIEFERA,4.11

row,Variant,protein stability index
1,YSEYPECCVDVKPISQEKIEPERA,4.29
2,YSEYPECCVDVKPISQEKIEVERA,4.36
3,YSEYPECCVDVKPISQEKIEHERA,4.58
4,YSEYPECCVDVKPISQEKIEYERA,3.76
5,YSEYPECCVDVKPISQEKIELERA,3.79
6,YSEYPECCVDVKPISQEKIEIERA,3.42
7,YSEYPECCVDVKPISQEKIENERA,3.73
8,YSEYPECCVDVKPISQEKIEAERA,4.36
9,YSEYPECCVDVKPISQEKIETERA,4.55
10,YSEYPECCVDVKPISQEKIEWERA,3.61
11,YSEYPECCVDVKPISQEKIEGERA,3.8
12,YSEYPECCVDVKPISQEKIEEERA,4.71
13,YSEYPECCVDVKPISQEKIEQERA,4.1
14,YSEYPECCVDVKPISQEKMESERA,4.1
15,YSEYPECCVDVKPISQEKNESERA,4.61
16,YSEYPECCVDVKPISQEKQESERA,4.95
17,YSEYPECCVDVKPISQEKKESERA,4.9
18,YSEYPECCVDVKPISQEKWESERA,4.24
19,YSEYPECCVDVKPISQEKFESERA,4.16
20,YSEYPECCVDVKPISQEKEESERA,4.69
21,YSEYPECCVDVKPISQEKPESERA,4.02
22,YSEYPECCVDVKPISQEKAESERA,4.65
23,YSEYPECCVDVKPISQEKGESERA,4.34
24,YSEYPECCVDVKPISQEKTESERA,4.55

row,Variant,protein stability index
1,YSEYPECCVDVKPISQEKYESERA,3.1
2,YSEYPECCVDVKPISQEKVESERA,3.31
3,YSEYPECCVDVKPISQEKHESERA,3.01
4,YSEYPECCVDVKPTSQEKIESERA,3.48
5,YSEYPECCVDVKPASQEKIESERA,4.58
6,YSEYPECCVDVKPFSQEKIESERA,4.18
7,YSEYPECCVDVKPYSQEKIESERA,3.84
8,YSEYPECCVDVKPRSQEKIESERA,3.45
9,YSEYPECCVDVKPWSQEKIESERA,3.9
10,YSEYPECCVDVKPQSQEKIESERA,4.48
11,YSEYPECCVDVKPCSQEKIESERA,3.86
12,YSEYPECCVDVKPDSQEKIESERA,4.81
13,YSEYPECCVDVKPMSQEKIESERA,4.65
14,YSEYPECCVDVKPVSQEKIESERA,4.11
15,YSEYPECCVDVKPSSQEKIESERA,4.4
16,YSEYPECCVDVKPPSQEKIESERA,4.45
17,YSEYPECCVDVKPKSQEKIESERA,4.43
18,YSEYPECCVDVKPGSQEKIESERA,3.83
19,YSEYPECCVDVKPHSQEKIESERA,4.29
20,YSEYPECCVDVKPNSQEKIESERA,3.31
21,YSEYPECCVDVKPESQEKIESERA,4.5
22,YSEYPECCVDVKPISQEKIESFRA,3.6
23,YSEYPECCVDVKPISQEKIESMRA,3.65
24,YSEYPECCVDVKPISQEKIESSRA,3.56

row,Variant,protein stability index
1,YSEYPECCVDVKPISQEKIESTRA,4.17
2,YSEYPECCVDVKPISQEKIESPRA,3.45
3,YSEYPECCVDVKPISQEKIESCRA,3.51
4,YSEYPECCVDVKPISQEKIESHRA,4
5,YSEYPECCVDVKPISQEKIESKRA,3.43
6,YSEYPECCVDVKPISQEKIESVRA,3.05
7,YSEYPECCVDVKPISQEKIESQRA,3.54
8,YSEYPECCVDVKPISQEKIESIRA,3.54
9,YSEYPECCVDVKPISQEKIESDRA,4.24
10,YSEYPECCVDVKPISQEKIESARA,4.36
11,YSEYPECCVDVKPISQEKIESYRA,2.58
12,YSEYPECCVDVKPISQEKIESWRA,2.88
13,YSEYPECCVDVKPISQEKIESLRA,2.27
14,YSEYPECCVDVKPISQEKIESRRA,3.18
15,YSEYPECCVDVKPISQEKIESNRA,3.59
16,YSEYPECCVDVKPIGQEKIESERA,4.45
17,YSEYPECCVDVKPILQEKIESERA,3.68
18,YSEYPECCVDVKPIVQEKIESERA,3.96
19,YSEYPECCVDVKPIQQEKIESERA,4.05
20,YSEYPECCVDVKPIHQEKIESERA,4.47
21,YSEYPECCVDVKPIDQEKIESERA,4.81
22,YSEYPECCVDVKPIEQEKIESERA,4.18
23,YSEYPECCVDVKPIPQEKIESERA,4.38
24,YSEYPECCVDVKPIIQEKIESERA,3.82

row,Variant,protein stability index
1,YSEYPECCVDVKPIRQEKIESERA,4.09
2,YSEYPECCVDVKPITQEKIESERA,3.85
3,YSEYPECCVDVKPIAQEKIESERA,4.16
4,YSEYPECCVDVKPIKQEKIESERA,3.68
5,YSEYPECCVDVKPICQEKIESERA,4.14
6,YSEYPECCVDVKPIFQEKIESERA,3.64
7,YSEYPECCVDVKPIYQEKIESERA,4.18
8,YSEYPECCVDVKPISQEKIESEIA,4.24
9,YSEYPECCVDVKPISQEKIESEGA,4.42
10,YSEYPECCVDVKPISQEKIESEPA,4.55
11,YSEYPECCVDVKPISQEKIESEKA,4.65
12,YSEYPECCVDVKPISQEKIESEWA,3.41
13,YSEYPECCVDVKPISQEKIESEYA,3.71
14,YSEYPECCVDVKPISQEKIESECA,4.98
15,YSEYPECCVDVKPISQEKIESEAA,4.23
16,YSEYPECCVDVKPISQEKIESEFA,3.73
17,YSEYPECCVDVKPISQEKIESELA,4.18
18,YSEYPECCVDVKPISQEKIESEHA,4.52
19,YSEYPECCVDVKPISQEKIESESA,4.38
20,YSEYPECCVDVKPISQEKIESEVA,3.88
21,YSEYPECCVDVKPISQEKIESENA,4.34
22,YSEYPECCVDVKPISQEKIESEDA,4.41
23,YSEYPECCVDVKPISQEKIESEMA,3.91
24,YSEYPECCVDVKPISQEKIESETA,4.44

row,Variant,protein stability index
1,YSEYPECCVDVKPISQEKIESEEA,4.39
2,YSEYPECCVDVKPISQEKIESEQA,4.34
3,YSEYPECCVDVKPISQEKIESERN,4.1
4,YSEYPECCVDVKPISQEKIESERH,3.73
5,YSEYPECCVDVKPISQEKIESERF,2.43
6,YSEYPECCVDVKPISQEKIESERG,3.82
7,YSEYPECCVDVKPISQEKIESERE,4.9
8,YSEYPECCVDVKPISQEKIESERI,4.16
9,YSEYPECCVDVKPISQEKIESERK,3.82
10,YSEYPECCVDVKPISQEKIESERD,4.45
11,YSEYPECCVDVKPISQEKIESERL,4.26
12,YSEYPECCVDVKPISQEPIESERA,3.84
13,YSEYPECCVDVKPISQECIESERA,3.1
14,YSEYPECCVDVKPISQEVIESERA,4.16
15,YSEYPECCVDVKPISQETIESERA,4.52
16,YSEYPECCVDVKPISQENIESERA,4.19
17,YSEYPECCVDVKPISQEAIESERA,4.17
18,YSEYPECCVDVKPISQEQIESERA,4.87
19,YSEYPECCVDVKPISQEIIESERA,4.02
20,YSEYPECCVDVKPISQEMIESERA,4.3
21,YSEYPECCVDVKPISQEEIESERA,4.55
22,YSEYPECCVDVKPISQEGIESERA,3.39
23,YSEYPECCVDVKPISQEHIESERA,4.41
24,YSEYPECCVDVKPISQELIESERA,3.68

row,Variant,protein stability index
1,YSEYPECCVDVKPISQEWIESERA,3.73
2,YSEYPECCVDVKPISQESIESERA,3.98
3,YSEYPECCVDVKPISDEKIESERA,4.67
4,YSEYPECCVDVKPISYEKIESERA,3.37
5,YSEYPECCVDVKPISWEKIESERA,2.83
6,YSEYPECCVDVKPISSEKIESERA,3.85
7,YSEYPECCVDVKPISTEKIESERA,4.03
8,YSEYPECCVDVKPISMEKIESERA,4.3
9,YSEYPECCVDVKPISPEKIESERA,4.38
10,YSEYPECCVDVKPISHEKIESERA,3.99
11,YSEYPECCVDVKPISEEKIESERA,4.33
12,YSEYPECCVDVKPISLEKIESERA,4.19
13,YSEYPECCVDVKPISKEKIESERA,3.85
14,YSEYPECCVDVKPISGEKIESERA,4.06
15,YSEYPECCVDVKPISFEKIESERA,3.58
16,YSEYPECCVDVKPISIEKIESERA,3.9
17,YSEYPECCVDVKPISNEKIESERA,4.59
18,YSEYPECCVDVKPISVEKIESERA,3.41
19,YSEYPECCVDVKPISAEKIESERA,3.74
20,YSEYPECCVDVKPISREKIESERA,4.34
